Where a chain is given by its changes, count along the chain named. Numbers in names are those of the source.
B1: FapC UK4 Asn200Ala (natural protein, Pseudomonas sp. UK4)
chain: GPAEKWKPTPAPTGTVAAAVTDTQVSKDNKFDDTKTLNNAGANGSLSNSKGNLGANIAAGSGNQQDNAAAITSSAGDAATVFAVADIYQESKDNKFTNKGTQNNALLNNSANNSSGNVGVNVAAGQGNQQKNNLAIVTADGKNVAAASNTEQVSLDNHFLNEASSKHSYKPQYVVANAGLLNSANNASGNIGVNVAAGAGNQQSNTLTLGSGCTVCAAGTGSKLAF
notes: FapC, Pseudomonas sp; UK4, point mutant made on the FapC UK4 plasmid; Same construct as m1 but for the mutation; source: E. coli BL21 (DE3), purified (Ni-NTA in 7.5 M guanidine hydrochloride), desalted
B2: FapC UK4 Asp90Lys and Ser228Lys (natural protein, Pseudomonas sp. UK4)
chain: B1 chain with D66K, A176N, S204K
notes: FapC, Pseudomonas sp; UK4, double charge mutant made on the FapC UK4 plasmid; Same construct as m1 but for the mutations; also called cluster of three positive charges (Lys90, Lys155, and Lys228); source: E. coli BL21 (DE3), purified (Ni-NTA in 7.5 M guanidine hydrochloride), desalted
B3: FapC UK4 Lys155Asp and Ser228Asp (natural protein, Pseudomonas sp. UK4)
chain: B1 chain with K131D, A176N, S204D
notes: FapC, Pseudomonas sp; UK4, double charge mutant made on the FapC UK4 plasmid; Same construct as m1 but for the mutations; also called cluster of four negative charges (Asp46, Asp90, Asp155, and Asp228); source: E. coli BL21 (DE3), purified (Ni-NTA in 7.5 M guanidine hydrochloride), desalted
B4: FapC UK4 Gly75Pro (natural protein, Pseudomonas sp. UK4)
chain: B1 chain with G51P, A176N
notes: as for B1
B5: FapC UK4 Gly84Ala (natural protein, Pseudomonas sp. UK4)
chain: B1 chain with G60A, A176N
notes: FapC, Pseudomonas sp; UK4, point mutant made on the FapC UK4 plasmid; Same construct as m1 but for the mutation; also called G84A; source: E. coli BL21 (DE3), purified (Ni-NTA in 7.5 M guanidine hydrochloride), desalted
B6: FapC UK4 N145A (natural protein, Pseudomonas sp. UK4)
chain: B1 chain with N121A, A176N
notes: as for B1
B7: FapC UK4 Q89A (natural protein, Pseudomonas sp. UK4)
chain: B1 chain with Q65A, A176N
notes: FapC, Pseudomonas sp; UK4, point mutant made on the FapC UK4 plasmid; Same construct as m1 but for the mutation; also called Gln89 mutant; source: E. coli BL21 (DE3), purified (Ni-NTA in 7.5 M guanidine hydrochloride), desalted
B8: FapC UK4 Asn229Ala (natural protein, Pseudomonas sp. UK4)
chain: B1 chain with A176N, N205A
notes: as for B1
B9: FapC UK4 Asn87Ala (natural protein, Pseudomonas sp. UK4)
chain: B1 chain with N63A, A176N
notes: FapC, Pseudomonas sp; UK4, point mutant made on the FapC UK4 plasmid; Same construct as m1 but for the mutation; also called Asn87 mutant; source: E. coli BL21 (DE3), purified (Ni-NTA in 7.5 M guanidine hydrochloride), desalted
B10: FapC UK4 Gly75Ala (natural protein, Pseudomonas sp. UK4)
chain: B1 chain with G51A, A176N
notes: as for B1
B11: FapC UK4 Gln227Ala (natural protein, Pseudomonas sp. UK4)
chain: B1 chain with A176N, Q203A
notes: as for B1

Columns and labels:
[1] = biological target: FapC from Pseudomonas putida F1, wild type (Pseudomonas putida F1); experiment: formic acid dissolution of fibrils with SDS-PAGE; mature fibrils in 0-100% formic acid, 30 min, room temperature; centrifuged; released monomer in the supernatant on SDS-PAGE, normalised to 100% FA
[2] = biological target: FapC from Pseudomonas aeruginosa PAO1, wild type (Pseudomonas aeruginosa PAO1); experiment: seeded ThT fibrillation kinetics, global fit with AmyloFit; 5 µM FapC UK4 monomer with 0-10% v/v sonicated fibril seeds of UK4, PAO1, Pf5 or F1 FapC; 40 µM ThT, 50 mM Tris/HCl pH 7.4, 37 °C, no shaking; constants of monomer addition to (k+) and release from (Koff) fibrils; time in hours
[3] = biological target: FapC from Pseudomonas fluorescens Pf5, wild type (P. fluorescens Pf5); experiment: as above
[4] = biological target: FapC from Pseudomonas putida F1, wild type (Pseudomonas putida F1); experiment: as above
[5] = biological target: FapC from P. fluorescens Pf5, wild type (P. fluorescens Pf5) (UniProt P0DXF5); experiment: formic acid dissolution of fibrils with SDS-PAGE; mature fibrils in 0-100% formic acid, 30 min, room temperature; centrifuged; released monomer in the supernatant on SDS-PAGE, normalised to 100% FA
[6] = biological target: the molecule itself; experiment: ThT fluorescence fibrillation kinetics; self-assembly into amyloid without seeds; 15 µM FapC (wt or mutant; wt also 1-15 µM), 50 mM Tris/HCl pH 7.4, 40 µM ThT, 37 °C, no shaking, followed for 120 h

| Molecule | binding result [6] | further results |
| --- | --- | --- |
| FapC from Pseudomonas putida F1, wild type (natural protein) |  | formic acid needed to dissolve half of the fibrils [1]: 70 % FA |
| FapC from Pseudomonas sp. UK4, wild type (from UniProt P0DXF5 25-250) (natural protein) |  | koff [2]: 3.94e-14 s⁻¹; koff [3]: 9.11e-13 s⁻¹; koff [4]: 1.96e-15 s⁻¹ |
| FapC from P. fluorescens Pf5, wild type (from UniProt P0DXF5 25-250) (natural protein) |  | formic acid needed to dissolve half of the fibrils [5]: 70 % FA |
| B1 | binds |  |
| B2 | binds |  |
| B3 | binds |  |
| B4 | binds |  |
| B5 | binds |  |
| B6 | binds |  |
| B7 | binds |  |
| B8 | binds |  |
| B9 | binds |  |
| B10 | binds |  |
| B11 | binds |  |

From paper PMC12392863, “Natural Design of a Stabilized Cross‐β Fold: Structure of the FuA FapC from Pseudomonas Sp. UK4 Reveals a Critical Role for Stacking of Imperfect Repeats” (Advanced Materials (Deerfield Beach, Fla.), 2025)
